Measured values as given in patent publication US20010004522A1, “KINASE ACTIVITY MEASUREMENT USING FLUORESCENCE POLARIZATION” (priority 1997, published 2001).

Columns and labels:
[1] = target: T1, T-cell protein tyrosine phosphatase (Homo sapiens, UniProt P17706); test: Phosphatase activity by fluorescence polarization; assay type: biochemical; conditions: 1.0 mM Na3VO4, 0.5 U T-cell protein tyrosine phosphatase, 30° C.
T1 construct: purchased New England Biolabs
T1 sequence (P17706 1-317 limits assumed): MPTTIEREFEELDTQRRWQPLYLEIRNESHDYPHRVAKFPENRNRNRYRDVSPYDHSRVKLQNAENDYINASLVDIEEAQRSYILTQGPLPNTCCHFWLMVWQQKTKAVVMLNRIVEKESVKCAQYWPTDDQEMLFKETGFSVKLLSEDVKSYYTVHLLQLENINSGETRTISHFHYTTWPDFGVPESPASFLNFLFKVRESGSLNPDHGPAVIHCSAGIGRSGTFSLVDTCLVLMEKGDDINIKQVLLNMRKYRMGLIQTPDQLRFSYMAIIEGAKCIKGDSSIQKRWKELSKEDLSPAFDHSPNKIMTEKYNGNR
Method: Fluorescence polarization can also be used to measure phosphatase activity.
Phosphatase enzyme was added to a high polarization mixture and as it removed the phosphate from the peptide, the antibody was released, and the polarization value went down, shown in FIG. 13. Two control experiments were performed. […] This assay was performed with all of the reaction and detection components present in a test tube. However, this reaction could also be done as an endpoint assay with aliquots of the reaction taken at incremental time points, or with different reactions started at the same time but terminated at incremental time points.

EGF receptor = EGF receptor (Homo sapiens, UniProt P00533); conditions: 50 mM EDTA, ~12.5 nM EGF receptor, 30° C., polarization read every 10 seconds
Sequence of EGF receptor (P00533 25-1210): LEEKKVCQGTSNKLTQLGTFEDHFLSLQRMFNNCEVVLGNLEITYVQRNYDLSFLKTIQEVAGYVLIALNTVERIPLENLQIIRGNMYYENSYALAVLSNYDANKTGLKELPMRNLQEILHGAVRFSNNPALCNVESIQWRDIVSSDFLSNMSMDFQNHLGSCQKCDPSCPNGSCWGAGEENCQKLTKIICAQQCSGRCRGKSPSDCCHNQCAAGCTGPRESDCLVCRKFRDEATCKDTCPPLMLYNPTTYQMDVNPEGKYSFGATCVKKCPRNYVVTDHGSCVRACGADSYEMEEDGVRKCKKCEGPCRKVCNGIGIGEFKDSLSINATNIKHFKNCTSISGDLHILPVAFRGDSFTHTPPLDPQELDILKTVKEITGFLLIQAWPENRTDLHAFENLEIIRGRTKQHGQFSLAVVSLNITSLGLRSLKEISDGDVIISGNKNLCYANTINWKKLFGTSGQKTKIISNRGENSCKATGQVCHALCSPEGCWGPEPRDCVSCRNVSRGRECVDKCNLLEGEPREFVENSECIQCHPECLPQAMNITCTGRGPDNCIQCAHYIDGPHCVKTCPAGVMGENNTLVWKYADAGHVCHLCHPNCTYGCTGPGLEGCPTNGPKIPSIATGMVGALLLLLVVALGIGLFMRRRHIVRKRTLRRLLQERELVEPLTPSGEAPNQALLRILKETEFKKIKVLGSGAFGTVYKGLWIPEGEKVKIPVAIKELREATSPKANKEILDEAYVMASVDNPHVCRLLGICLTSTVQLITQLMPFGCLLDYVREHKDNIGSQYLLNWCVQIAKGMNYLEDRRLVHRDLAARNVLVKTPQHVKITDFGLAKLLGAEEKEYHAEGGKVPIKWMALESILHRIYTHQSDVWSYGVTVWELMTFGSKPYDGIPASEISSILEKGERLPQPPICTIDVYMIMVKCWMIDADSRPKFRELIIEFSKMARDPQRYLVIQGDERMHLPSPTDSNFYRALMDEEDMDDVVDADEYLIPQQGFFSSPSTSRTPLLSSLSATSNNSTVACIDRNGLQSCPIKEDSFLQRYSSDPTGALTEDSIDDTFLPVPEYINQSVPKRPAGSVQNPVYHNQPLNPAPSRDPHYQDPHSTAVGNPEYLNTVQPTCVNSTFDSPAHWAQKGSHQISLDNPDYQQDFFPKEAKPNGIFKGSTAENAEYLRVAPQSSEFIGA

GFAP peptide = test: Radioactive (32P) kinase assay of PKC isozymes on GFAP peptide; assay type: biochemical; conditions: GFAP peptide 100 μg/ml, 10 μM ATP, 100 μM CaCl2, no EGTA
[2] = target: T2, PKC Epsilon (ε) substrate peptide (Homo sapiens, UniProt Q02156); test: PKC activity assay, phospholipid dependence; assay type: biochemical
T2 construct: made in house
T2 sequence (Q02156 1-737): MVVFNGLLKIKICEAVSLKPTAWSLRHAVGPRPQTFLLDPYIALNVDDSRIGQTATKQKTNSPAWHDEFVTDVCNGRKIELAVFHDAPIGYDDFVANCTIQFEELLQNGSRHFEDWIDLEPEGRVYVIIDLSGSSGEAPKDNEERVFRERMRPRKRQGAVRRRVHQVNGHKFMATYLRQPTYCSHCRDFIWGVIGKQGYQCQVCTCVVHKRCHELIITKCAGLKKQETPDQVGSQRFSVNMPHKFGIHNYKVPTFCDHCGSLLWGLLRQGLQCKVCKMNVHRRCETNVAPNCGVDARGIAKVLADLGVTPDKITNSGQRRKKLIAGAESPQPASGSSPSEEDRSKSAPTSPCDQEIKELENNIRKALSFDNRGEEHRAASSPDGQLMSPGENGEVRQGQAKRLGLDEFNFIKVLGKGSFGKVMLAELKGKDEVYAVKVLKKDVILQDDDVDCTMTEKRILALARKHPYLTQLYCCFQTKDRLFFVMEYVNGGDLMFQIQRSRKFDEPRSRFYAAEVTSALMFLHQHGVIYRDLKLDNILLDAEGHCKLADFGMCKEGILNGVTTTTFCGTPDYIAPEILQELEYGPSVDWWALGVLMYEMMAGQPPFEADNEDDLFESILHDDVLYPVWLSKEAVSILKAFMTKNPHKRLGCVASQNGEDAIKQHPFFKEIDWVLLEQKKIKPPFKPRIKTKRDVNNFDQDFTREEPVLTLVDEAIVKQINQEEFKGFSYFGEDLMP
From the text: The purpose of this protocol is to provide the reader with the conditions that we use to determine the activity and phospholipid dependence of Protein Kinase C ε. This protein is purified to near homogeneity and may behave differently from crude preparations. The calculated molecular weight of the protein is 83.5 kDa. Apparent molecular weights of 89-96 kDa have been reported in the literature, and the protein may run as a doublet (1). […] With the assay described in this protocol, we typically see a two-fold phosphatidylserine stimulation of activity. There are many factors that can affect the phospholipid dependence of this enzyme and it will display different degrees of dependency for different substrates. The quality of the lipids used is very important and can affect the lipid dependency dramatically. The reaction conditions given in this protocol and the enzyme concentration ranges used give linear reaction kinetics over at least ten minutes.
[…] of Phosphatidylserine (1.2 μl of 10 mg/ml PS Stock) and […] of diacylglycerol (0.6 μl of 2 mg/ml DAG Stock) are needed per reaction. Determine the total amount of each needed for the number of reactions one is running and make up 10% more lipid mix than required to account for pipetting loss.
Using a Hamilton syringe (remember to clean out with methanol), transfer the required volume of each lipid stock to a 12×75 mm glass test tube. Thoroughly dry down the chloroform with a nitrogen stream and gentle rotation of the tube. Resuspend the dried mixture with 10 μl buffer per reaction. Resuspension buffer is 10 mM HEPES, pH 7.4/0.3% Triton X-100. Vortex into solution/suspension. This will take at least two minutes of vortexing. Place the lipid mix in a 40° C. water bath for 5 minutes prior to adding to the reaction mix.
1). Make up the reaction mix. All assays should be done in triplicate. Two blanks (reaction mix with no enzyme added) should be included and one tube for determining the total cpm's in a reaction.
2). Dispense 60 μl of mix into each tube and place tubes at 30° C.
3). Dilute the protein to be assayed to between 20 and 50 ng/μl.
4). Add 2 μl of diluted enzyme to each tube at 20 second intervals. Blanks have no enzyme added.
5). Stop reactions at 10 minutes by adding 6 μl 5% phosphoric acid.
6). Incubate on ice for 5 minutes.
7). Spot 5 μl of reaction mix on to two phosphocellulose membranes. These are the “Totals”.
8). Transfer 55 μl from each tube to phosphocellulose membranes. Allow to dry. Wash the membranes three times with 5 ml 0.5% phosphoric acid per filter in a 400 ml beaker.
9). Transfer membranes to scintillation vials and count (drying is not necessary). […]

**Q.** For `[Na+].[Na+].[Na+].[O]=[V]([O-])([O-])[O-]` [vanadate, Na3VO4], which “polarization value (phosphatase activity)” value [1] is on record?
**A.** remained constant

**Q.** For `O=C(O)CN(CCN(CC(=O)O)CC(=O)O)CC(=O)O` [EDTA], which “EGF receptor kinase activity” value (EGF receptor) is on record?
**A.** inhibits

B1: PKC epsilon: PKC isozyme tested for phosphorylation of GFAP peptide (protein, UniProt Q02156 1-737, looked up)
Protein kinase C epsilon type: T2 sequence (Q02156 1-737)
**Q.** How did the “substrate phosphorylated (radioactive data for FIG. 6)” value (GFAP peptide) turn out when B1 was run?
**A.** 1.47%

B2: PKC ε lot #6747: Protein Kinase C ε purified to near homogeneity, current lot of the enzyme (protein, UniProt Q02156 1-737, looked up)
Protein kinase C epsilon type: T2 sequence (Q02156 1-737)
**Q.** Which results are given for B2?
**A.** % Activity ([2]; No Lipid Activators): 59%; Specific Activity ([2]; No Lipid Activators): 743; % Activity ([2]; PS/DAG): 100%; Specific Activity ([2]; PS/DAG): 1250
